The target of assay [1] is T1, SARS-CoV-2 N protein (nucleocapsid) peptide on HLA-A*02:01 (human).
T1 peptide: RTATKAYNV
Nature of the assay: multimer staining.

The target of assay [2] is T2, SARS-CoV N protein (nucleocapsid) peptide on HLA-A*02:01 (human).
T2 peptide: RTATKQYNV
In words: multimer staining.

The text below walks through data of PMC11169541 (2024).

B1: TCR-4 (TCR)
alpha TRAV17*01 TRAJ27*01 CDR3: CATDEDTNAGKSTF
beta TRBV4-1*01 TRBJ1-1*01 CDR3: CASSPDPWGVDTEAFF
As to B1, the binding result in assay [1] is listed as “recognises”; in assay [2] it was “no recognition”.

B2: TCR-2 (TCR)
alpha TRAV4*01 TRAJ34*01 CDR3: CLVGDVDTDKLIF
beta TRBV20-1*05 TRBJ1-6*01 CDR3: CSASHPGDSPLHF
With B2, the binding result in assay [1] is “recognises”; in assay [2], “no recognition”.
